# Measured values: US20100256217A1 (University of Pennsylvania, published 2010)
# Biological target: T1, human CK2β subunit, cloned from HeLa cell cDNA (pcCK2β) (human, UniProt P67870 1-215)
# T1 construct: 35S-labeled in vitro translated protein in the in vitro assay; Expressed in transfected 293T cells in the in vivo assay; also called CKβ; CK2 beta
# Experiment: in vitro binding assay, 35S-labeled in vitro translated proteins, co-immunoprecipitation with anti-His or anti-CK2β, autoradiography
# T1 sequence (P67870 whole entry): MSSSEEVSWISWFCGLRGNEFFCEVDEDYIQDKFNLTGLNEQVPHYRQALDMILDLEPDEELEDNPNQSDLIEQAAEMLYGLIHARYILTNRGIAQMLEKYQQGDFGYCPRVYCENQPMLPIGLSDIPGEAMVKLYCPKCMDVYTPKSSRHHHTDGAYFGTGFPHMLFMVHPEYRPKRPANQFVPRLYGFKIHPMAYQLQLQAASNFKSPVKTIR
binder,measurement,value
"West Nile virus capsid protein with a C-terminal polyhistidine tag, encoded by pcWNV C-His (other, The capsid is its N-terminal part; also called WNV Cp; protein C; not shown: C-terminal polyhistidine tag from the pcDNA3.1 V5/HisA vector) MSKKPGGPGKSRAVNMLKRGMPRVLSLIGLKRAMLSLIDGKGPIRFVLALLAFFRFTAIAPTRAVLDRWRGVNKQTAMKHLLSFKKELGTLTSAINRRSSKQKKRGGKTGIAVMIGLIASVGA",binding result,no binding
